Measured values taken from article PMC4681064.

Key:
Assay in all cases: GST pulldown, Western blot densitometry
Conditions in all cases: incubated overnight with lysates; GST-only control 10 (PA2 lysate), 8 (WT lysate)
[1] = target: GST-tagged CMS SH3 domain III
[2] = target: GST-tagged CMS SH3 domain II
[3] = target: GST-tagged CMS SH3 domain I

Substance: HCV NS5A protein (WT) expressed from SGR-neo-JFH-1 (from UniProt Q99IB8) PA2: P2 motif PTPPPR -> ATPAAA (P->A; P->A; P->A; R->A; residue numbers not printed)
- response (NS5A:GST-SH3 ratio (%)) [1]: 10
- response (NS5A:GST-SH3 ratio (%)) [2]: 9
- response (NS5A:GST-SH3 ratio (%)) [3]: 16
